Residue numbers refer to the chain shown, from its start. Names may count otherwise.
What was measured:
[1] = system: O=[N+]([O-])c1ccc(OP(=O)(O)O)cc1; test: Affinity of pNPP to EIEC apyrase (Table 6); assay type: biochemical; conditions: other: EIEC apyrase, pH 7.5, 37.0 °C
Text: (§1) The formation of product. Para-nitro phenol was monitored colorimetrically at 405 nm using multi-mode spectrophotometer (Biotek instruments).
(§2) Respective colorimetric/fluorescence assays (mentioned above).

[2] = system: Nc1ncnc2c1ncn2[C@@H]1O[C@H](COP(=O)(O)OP(=O)(O)OP(=O)(O)O)[C@@H](O)[C@H]1O; test: Affinity of ATP to EIEC apyrase (Table 6); assay type: biochemical; conditions: other: EIEC apyrase, pH 7.5, 37.0 °C
Text: as §2

[3] = system: O=[N+]([O-])c1ccc(OP(=O)(O)O)cc1; test: pNPP dephosphorylation (Example 3), mutant; assay type: biochemical, Shigella flexneri; conditions: other: mutant of Example 1, 50 mM Tris, pH 7.5, 37° C., 15 min, 2 μg enzyme
Method: In order to improve the activity of apyrase and its tolerance to high salt conditions, the inventors mutated the apyrase gene randomly using an error prone PCR method starting from the wild-type Shigella flexneri apyrase DNA sequence (SEQ ID NO: 4) as template. The method incorporates repeated copying of the template at high MgCl2 concentration (5 mM) with Taq polymerase. After every fourth cycle, one fifth of the reaction mixture was transferred to fresh PCR tube and the same process was repeated 22 times to obtain a product that will have randomly mutated nucleotides which can be identified by sequencing. The mutated gene was cloned in pET21a vector. The mutated DNA sequence obtained is presented as SEQ ID NO: 2, containing a total of 31 mutations leading to amino-acid changes (see SEQ ID NO:3 compared to the wild-type amino-acid sequence of SEQ ID NO: 1).
(§3) Products: para Nitro phenol (PNP, yellow colour, absorbance at 405 nm) and phosphate • pNPP+Apyrase→PNP+Pi
To further study the capability of the mutant enzyme to hydrolyse pNPP, the substrate (pNPP) was titrated and incubated with the mutant apyrase. […]
The enzymes (2 μg) were incubated with different concentrations of pNPP (dissolved in 50 mM Tris, pH 7.5) in a 100 μL reaction mixture. […] These were incubated at 37° C. for 15 minutes and absorbance was taken at 405 nm.

[4] = system: O=[N+]([O-])c1ccc(OP(=O)(O)O)cc1; test: Affinity towards pNPP, L66V; assay type: biochemical, Shigella flexneri; conditions: other: L66V, 50 mM Tris-HCl pH 7.5, 37° C., 20 min, 500 ng enzyme
Text: However, not all reactions successfully generated PCR products by agarose gel electrophoresis. The successful mutations were transformed into the expression host and proteins were expressed and purified to homogeneity by affinity chromatography.
Other substrates like 2-Glycerophosphate, Pyridoxal phosphate and phenyl phosphate were not hydrolysed by the mutants (Table 2 and FIG. 8A-B).
as §1, §2

[5] = system: Cc1ncc(C[n+]2csc(CCO[P@](=O)(O)OP(=O)(O)O)c2C)c(N)n1; test: purified protein, by the assay type; conditions: other: L66V, TPP, 50 mM Tris-HCl pH 7.5, 37° C., 20 min, 500 ng enzyme
Method: The kinetic curves were plotted and the Michaelis Menten constant (Km) was calculated using GraphPad Prism 5.0 software.

[6] = target: T1, wild-type Shigella flexneri apyrase, SEQ ID NO: 1 (Shigella flexneri, UniProt Q59909); test: pNPP dephosphorylation (Example 3), wild type; assay type: biochemical; conditions: 50 mM Tris, pH 7.5, 37° C., 15 min, 2 μg enzyme
T1 sequence (Q59909 26-246): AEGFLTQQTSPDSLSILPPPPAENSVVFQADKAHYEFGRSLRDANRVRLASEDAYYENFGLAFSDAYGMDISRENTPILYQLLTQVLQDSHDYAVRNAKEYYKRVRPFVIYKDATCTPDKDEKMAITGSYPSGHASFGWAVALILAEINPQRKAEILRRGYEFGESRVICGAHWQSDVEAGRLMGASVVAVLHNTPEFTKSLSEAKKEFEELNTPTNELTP
Method: as §3
(§4) To further study the capability of the mutant enzyme to hydrolyse pNPP, the substrate (pNPP) was titrated and incubated with the mutant apyrase. As controls, alkaline phosphatase (known to hydrolyse pNPP) and the wildtype enzyme were also included.
(§5) The enzymes (2 μg) were incubated with different concentrations of pNPP (dissolved in 50 mM Tris, pH 7.5) in a 100 μL reaction mixture. For alkaline phosphatase, pNPP was dissolved in carbonate buffer (pH 10.3). Control reaction with pNPP lacking WT, mutant apyrase and alkaline phosphatase was also included. These were incubated at 37° C. for 15 minutes and absorbance was taken at 405 nm.

[7] = system: EIEC apyrase variant H116L; test: Affinity of pNPP to EIEC H116L (Table 6); assay type: biochemical
Text: as §1, §2

alkaline phosphatase = test: pNPP dephosphorylation (Example 3), alkaline phosphatase; assay type: biochemical; conditions: carbonate buffer pH 10.3, 37° C., 15 min, 2 μg enzyme
Method: as §3, §4, §5

[8] = TPP assay / affinity (Examples 4-5); assay type: biochemical; conditions: 5.0 mM TPP, 20 minutes, 37° C.; FIG. 8B, 9C
Method: A stock of freshly prepared TPP (50 mM) was prepared before performing every assay. […] Hydrolysis of Thiamine pyrophosphate (TPP) releases Thiamine, which forms a thiochrome fluorophore on addition of hydrogen peroxide and horse radish peroxidase (HRP) in alkaline conditions (NaOH-HRP-H2O2-1M NaOH, 5 U/mL HRP, 50 mM H2O2 mixed in a volumetric ratio of 3:1:1). Fluorescence was measured using multi-mode spectrophotometer (Biotek instruments) with excitation at 368 nm and emission at 450 nm.
as §2

[9] = pNPP dephosphorylation assay (Example 3); assay type: biochemical; conditions: 2 μg enzyme, 3 mM pNPP, 50 mM Tris pH 7.5, 37° C., 15 minutes, FIG. 5
Method: Wild-type and mutant apyrase from Example 1 (2 μg each) were incubated with 3 mM pNPP (pNPP was dissolved in 50 mM Tris pH 7.5) in a 100 μL reaction mixture. Control reaction with pNPP lacking WT and mutant apyrase was also included. These were incubated at 37° C. for 15 minutes and absorbance was taken at 405 nm.
as §4, §5

[10] = Bhargava et al. Current Science 1995; cited from earlier work
[11] = pNPP assay / affinity (Examples 4-5); assay type: biochemical; conditions: 2.0 mM pNPP, 20 minutes, 37° C.; FIG. 8A, 9B
Text: as §1, §2

[12] = ATP hydrolysis using purified recombinant apyrase (AMFAS, Example 2); assay type: biochemical
Method: A titrated series of ATP solutions from 100 mM to 0.01 mM in 50 mM Tris, pH 7.5 were prepared and incubated with 700 ng of Apyrase (mutant prepared in Example 1 and wild-type Shigella flexneri apyrase as control) for 30 minutes at 37° C. (100 μL reaction). After the incubation, 100 μL AMFAS reagent was added and OD was taken at 630 nm using multimode reader (Biotek instruments). The color formation is proportional to the amount of ATP degraded (dephosphorylated to ADP or AMP). […] Specific activity at 10 mM ATP was determined as 6.3 μmoles/min/mg for the mutant apyrase.

[13] = Whole cell ATP degradation activity assay (periplasmic samples, AMFAS); assay type: biochemical; conditions: induced cells, lysozyme/EDTA, 37° C., 30 minutes
Method: As a crude assay for confirming expression of active enzyme, a whole cell ATP degradation activity assay was performed. 100 mM ATP was prepared in 50 mM Tris, pH 7.5. After dissolution, the pH was adjusted to 7.5 using NaOH. Pellets from 1 mL culture of induced cells were taken and washed twice with saline containing 1 mM Calcium chloride. The cells were treated with Lysozyme and EDTA to lyse the cell wall to release the periplasmic contents.
150 μL of 40 mM EDTA and 150 μL of 10 mM ATP was added to the pellet and mixed well, followed by incubation at 37° C. for 30 minutes.

Molecule: EIEC apyrase (Escherichia coli)
- Km [1]: 25.0 mM
- Km [2]: 0.021 mM

Molecule: Shigella flexneri apyrase, mutant apyrase of Example 1, SEQ ID NO: 3 (S50N, F54V, G63R, L66V, N70Q, E77V, A791, D90T, S97T, L108M, Q113N, V120R, K124R, Y127Q, P143R, 1151L, F162N, A167G, N174Q, K177R, L182F, G184A, W199Y, G206R, V213A, N219K, F223W, L227S, F234Y, T239Q, E243D) (Shigella flexneri; A167G/A79I/D90T/E243D/E77V/F162N/F223W/F234Y/F53V/G185A/G206R/G63R/I151L/K124R/K178R/L108M/L182F/L227S/L66V/N174Q/N219K/N70Q/P143R/Q113N/S50N/S97T/T239Q/V120R/V213A/W199Y/Y127Q)
- Km [3]: 2.1 mM

Molecule: Shigella flexneri apyrase (ApiOne, SEQ ID NO: 1) ApiTwo mutant L66V (Shigella flexneri; L66V)
- Km [4]: 0.76 mM
- Km [5]: 5.6 mM

Molecule: O=[N+]([O-])c1ccc(OP(=O)(O)O)cc1 [pNPP, para-Nitrophenylphosphate]
- Km for pNPP [6]: Too low affinity
- Km [7]: 3.5 mM
- Km (alkaline phosphatase): 8.4 mM

B1: ApiOne: wild-type Shigella flexneri apyrase, SEQ ID NO: 1, termed ApiOne (protein, listed as Shigella flexneri)
chain: MKTKNFLLFCIATNMIFIPSANALKAEGFLTQQTSPDSLSILPPPPAENSVVFQADKAHYEFGRSLRDANRVRLASEDAYYENFGLAFSDAYGMDISRENTPILYQLLTQVLQDSHDYAVRNAKEYYKRVRPFVIYKDATCTPDKDEKMAITGSYPSGHASFGWAVALILAEINPQRKAEILRRGYEFGESRVICGAHWQSDVEAGRLMGASVVAVLHNTPEFTKSLSEAKKEFEELNTPTNELTP
- Hydrolysis of TPP (in words) [8]: no detectable activity
- pNPP hydrolysis [9]: not active
- pNPP hydrolysis ([9]; listed as wildtype enzyme): lacks such activity
- Hydrolysis of pNPP [10]: does not hydrolyse

B2: F53V: Shigella flexneri apyrase (SEQ ID NO: 1) with single substitution F53V (protein, listed as Shigella flexneri)
chain: B1 chain with F53V
- Hydrolysis of TPP (in words) [8]: could hydrolyse
- Hydrolysis of pNPP (in words) [11]: could hydrolyse

B3: E77V: Shigella flexneri apyrase (SEQ ID NO: 1) with single substitution E77V (protein, listed as Shigella flexneri)
chain: B1 chain with E77V
- Hydrolysis of TPP (in words) [8]: could hydrolyse
- Hydrolysis of pNPP (in words) [11]: could hydrolyse

B4: L66V (protein, listed as Shigella flexneri)
chain: B1 chain with L66V
- Hydrolysis of TPP (in words) [8]: could hydrolyse
- Hydrolysis of pNPP (in words) [11]: could hydrolyse

B5: Mutant apyrase (protein)
chain: MKTKNFLLFCIATNMIFIPSANALKAEGFLTQQTSPDSLSILPPPPAENNVVVQADKAHYEFRRSVRDAQRVRLASVDIYYENFGLAFSTAYGMDITRENTPILYQLMTQVLNDSHDYARRNAREYQKRVRPFVIYKDATCTRDKDEKMALTGSYPSGHASNGWAVGLILAEIQPQRRAEIFRRAYEFGESRVICGAHYQSDVEARRLMGASAVAVLHKTPEWTKSSSEAKKEYEELNQPTNDLTPLEHHHHHH
modifications: Synthetic construct mutated variant
- ATP degradation activity compared with wild-type ([12]; ATP 100 mM to 0.01 mM, 37° C., FIG. 4): indistinguishable from the wild-type enzyme
- Specific activity ([12]; at 10 mM ATP): 6.3 µmol/min/mg
- ATP hydrolysis by periplasmic fraction [13]: can hydrolyse ATP similar to the WT apyrase
- pNPP hydrolysis ([9]; listed as mutant): has acquired the ability to hydrolyse pNPP
- pNPP hydrolysis ([9]; listed as mutant apyrase): considerable activity

From US20240167005A1, “MODIFIED SHIGELLA APYRASE AND USES THEREOF” (APIRAYS BIOSCIENCES AB, priority 2021, published 2024)
